Reference: PMC4386032

Biological target: F-actin (source not stated for this experiment: rabbit muscle or yeast) (not stated (rabbit muscle or yeast actin purified)) (UniProt P68135)

Vps1 (yeast dynamin), wild type, recombinant His tag fusion, sequence (P21576 whole entry, the tested form may be a part): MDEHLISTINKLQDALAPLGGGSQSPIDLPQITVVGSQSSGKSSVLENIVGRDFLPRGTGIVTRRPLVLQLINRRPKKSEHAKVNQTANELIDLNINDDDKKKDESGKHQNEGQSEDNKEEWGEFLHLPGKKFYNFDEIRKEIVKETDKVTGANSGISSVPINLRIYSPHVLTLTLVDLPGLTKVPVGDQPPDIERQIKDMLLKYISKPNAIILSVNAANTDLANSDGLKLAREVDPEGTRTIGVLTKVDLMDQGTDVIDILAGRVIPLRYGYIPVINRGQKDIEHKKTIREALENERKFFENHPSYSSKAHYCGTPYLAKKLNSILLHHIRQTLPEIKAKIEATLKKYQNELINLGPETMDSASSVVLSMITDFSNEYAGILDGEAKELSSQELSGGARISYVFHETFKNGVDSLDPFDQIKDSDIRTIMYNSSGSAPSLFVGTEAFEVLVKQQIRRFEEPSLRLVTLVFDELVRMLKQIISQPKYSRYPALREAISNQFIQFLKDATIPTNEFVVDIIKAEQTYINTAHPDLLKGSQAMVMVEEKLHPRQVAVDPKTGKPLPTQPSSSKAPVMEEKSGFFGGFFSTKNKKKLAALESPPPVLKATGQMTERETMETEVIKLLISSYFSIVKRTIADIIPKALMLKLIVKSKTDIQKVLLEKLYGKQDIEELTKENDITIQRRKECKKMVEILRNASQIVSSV

| Substance | EM: proportion of Vps1 structures that are double rings after incubation with actin [%] | EM: proportion of actin in bundles of three or more filaments in the presence of Vps1 [%] | EM: proportion of actin in bundles of two or more filaments in the presence of Vps1 (23% without) [%] | EM: proportion of actin filaments in bundles of three or more in the presence of Vps1 RR-EE [%] |
| --- | --- | --- | --- | --- |
| Vps1 (yeast dynamin), wild type, recombinant His tag fusion (from UniProt P21576 1-704) (natural protein) | 55 | 58 | > 80 |  |
| Vps1 RR457,458EE, recombinant His tag fusion (from UniProt P21576 1-704) (natural protein) |  |  |  | 8 |
